According to the Immune Epitope Database (IEDB):
pIC50, pKd: −log10 of the molar value.

What was measured:
HLA-A*30:01 = assay: IEDB peptide-MHC binding, purified MHC/competitive/radioactivity; filed as Kd, often an IC50 or EC50 that approximates it; ≥ and ≤ were set here for values at or beyond the usual limits of such assays
HLA-A*02:01 [1] = assay: IEDB peptide-MHC binding, purified MHC/competitive/fluorescence; ≥ and ≤ were set here for values at or beyond the usual limits of such assays
HLA-A*24:02 = assay: IEDB peptide-MHC binding, purified MHC/competitive/radioactivity; filed as Kd, often an IC50 or EC50 that approximates it; ≥ and ≤ were set here for values at or beyond the usual limits of such assays
HLA-A*23:01 = assay: as above
HLA-A*26:01 = assay: as above
HLA-A*68:01 = assay: as above; conditions: source organism: Dengue virus 2 Jamaica/1409/1983
HLA-A*30:02 = assay: as above
HLA-A*29:02 = assay: as above
HLA-B*58:01 = assay: IEDB peptide-MHC binding, purified MHC/direct/fluorescence; filed as Kd, often an IC50 or EC50 that approximates it; ≥ and ≤ were set here for values at or beyond the usual limits of such assays; conditions: source organism: Mycobacterium tuberculosis
HLA-B*15:01 = assay: as above
HLA-A*02:01 [2] = assay: as above; conditions: source organism: Influenza A virus (A/Jiangsu/38/2004(H3N2))
HLA-A*01:01 [3] = assay: IEDB peptide-MHC binding, purified MHC/competitive/radioactivity; filed as Kd, often an IC50 or EC50 that approximates it; ≥ and ≤ were set here for values at or beyond the usual limits of such assays
HLA-A*03:01 = assay: IEDB peptide-MHC binding, purified MHC/direct/fluorescence; filed as Kd, often an IC50 or EC50 that approximates it; ≥ and ≤ were set here for values at or beyond the usual limits of such assays; conditions: source organism: Vibrio parahaemolyticus RIMD 2210633
HLA-A*02:02 = assay: IEDB peptide-MHC binding, purified MHC/competitive/radioactivity; filed as Kd, often an IC50 or EC50 that approximates it; ≥ and ≤ were set here for values at or beyond the usual limits of such assays; conditions: source organism: Vaccinia virus WR
HLA-A*02:06 = assay: as above; conditions: source organism: Vaccinia virus WR
HLA-A*02:03 = assay: as above; conditions: source organism: Vaccinia virus WR
HLA-A*01:01 [4] = assay: IEDB peptide-MHC binding, purified MHC/direct/fluorescence; filed as Kd, often an IC50 or EC50 that approximates it; ≥ and ≤ were set here for values at or beyond the usual limits of such assays; conditions: source organism: SARS-CoV1
[5] = source organism: Vaccinia virus WR
[6] = source organism: Dengue virus 2 Jamaica/1409/1983
[7] = source organism: Zaire ebolavirus
[8] = source organism: Dengue virus 3 Martinique/1243/1999
[9] = source organism: Dengue virus 4 Philippines/H241/1956
[10] = source organism: Lymphocytic choriomeningitis virus (strain Armstrong)
[11] = source organism: Lassa virus Josiah
[12] = source organism: Sudan ebolavirus
[13] = source organism: Dengue virus 3 Singapore/8120/1995
[14] = source organism: Mammarenavirus guanaritoense
[15] = source organism: Mammarenavirus brazilense
[16] = source organism: SARS coronavirus Tor2

## AAMISLAKK
HLA-A*30:01; [5]
  pKd: 6.82

## AGKRSLRPQP
HLA-A*30:01; [6]
  pKd: 5.72

## AIVNAQPKC
HLA-A*02:01 [1]; [7]
  pIC50: ≤ 4.13

## ALTLATGPIS
HLA-A*30:01; [6]
  pKd: 6.66

## ATWAENIQV
HLA-A*02:01 [1]; source organism: West Nile virus NY-99
  pIC50: 6.11

## AWMVHRQWF
HLA-A*24:02; [8]
  pKd: 7.37
HLA-A*23:01; [8]
  pKd: 6.47

## EKLRIKGMSY
HLA-A*26:01; [9]
  pKd: 5.33

## ENPYRTWAY
HLA-A*26:01; [9]
  pKd: 5.36

## EQGLIQYPT
HLA-A*02:01 [1]; [7]
  pIC50: 4.22

## ERNRVSTPQG
HLA-A*30:01; [9]
  pKd: 6.92

## ESWILRNPGF
HLA-A*30:01; [9]
  pKd: 6.37
HLA-A*26:01; [9]
  pKd: 5.01

## ETAECPNTNR
HLA-A*68:01
  pKd: 7.86
HLA-A*26:01; [6]
  pKd: 4.98

## EYHLLYQKT
HLA-A*30:02; [10]
  pKd: ≤ 4.46
HLA-A*26:01; [10]
  pKd: ≤ 4.11

## FARLLNLSG
HLA-A*02:01 [1]; [7]
  pIC50: 4.32

## FFQEVPHVI
HLA-A*29:02; [11]
  pKd: 6.29
HLA-A*24:02; [11]
  pKd: 6.15
HLA-A*23:01; [11]
  pKd: 6.62

## FKIDNNTFV
HLA-A*02:01 [1]; [12]
  pIC50: 4.39

## FSGLLIVKT
HLA-A*02:01 [1]; [7]
  pIC50: ≤ 3.43

## GGTPAVEEW
HLA-B*58:01
  pKd: 6.70

## GLDDQEKKI
HLA-A*02:01 [1]; [7]
  pIC50: 4.39

## GLITNTIAG
HLA-A*02:01 [1]; [7]
  pIC50: 5.39

## GLNLEGNGV
HLA-A*02:01 [1]; [7]
  pIC50: 4.97

## GLRQLANET
HLA-A*02:01 [1]; [12]
  pIC50: 4.47

## GTKIALLEL
HLA-A*30:01; [5]
  pKd: 8.87

## GVKGFSFKY
HLA-B*15:01; source organism: Influenza A virus (A/eka/Thailand/EkA1NRC/2004(H5N1))
  pKd: ≤ 4.70

## GVPLLALGCY
HLA-A*30:02; source organism: Dengue virus 1 Brazil/97-11/1997
  pKd: 7.42

## HSLISNLLV
HLA-A*30:01; source organism: Vaccinia virus Copenhagen
  pKd: 6.25

## HVKIPTHLT
HLA-A*30:01; [5]
  pKd: 6.65

## IDQIIHDFV
HLA-A*02:01 [1]; [7]
  pIC50: ≤ 3.71

## IFITDNVHTW
HLA-A*23:01; [6]
  pKd: 7.44

## ILDGENCTL
HLA-A*02:01 [2]
  pKd: 7.42

## ILPEEQDQNY
HLA-A*01:01 [3]; [13]
  pKd: ≤ 4.41
HLA-A*30:02; [13]
  pKd: ≤ 4.43

## INYCLDFLF
HLA-A*29:02; [14]
  pKd: 6.90
HLA-A*24:02; [14]
  pKd: 5.90
HLA-A*23:01; [14]
  pKd: 7.25

## IWYMWLGARY
HLA-A*30:02; [8]
  pKd: 8.49

## KISISSLCK
HLA-A*30:01; [5]
  pKd: 7.06

## KMRDTLPAK
HLA-A*30:01; [5]
  pKd: 8.80

## KNKESLPML
HLA-A*30:01; [5]
  pKd: 7.74

## KSRVERVQV
HLA-A*30:01; [5]
  pKd: 7.95

## KTMGSCIQM
HLA-A*30:01; [5]
  pKd: 7.28

## KVAAEGINY
HLA-A*30:02; source organism: Dengue virus 2 Peru/IQT2913/1996
  pKd: 6.96

## KVASEGIKY
HLA-A*30:02; [8]
  pKd: 5.76

## KVHEISARG
HLA-A*30:01; [5]
  pKd: 6.75

## KVNPEIDTT
HLA-A*02:01 [1]; [7]
  pIC50: ≤ 3.92

## LASLTPKAQ
HLA-A*02:01 [1]; source organism: Variola virus
  pIC50: ≤ 3.69

## LICGLRQLA
HLA-A*02:01 [1]; [7]
  pIC50: 6.00

## LIGNEEYTDY
HLA-A*01:01 [3]; [6]
  pKd: 5.97

## LLNLSGVNN
HLA-A*02:01 [1]; [7]
  pIC50: ≤ 3.78

## LLQAGASVK
HLA-A*03:01
  pKd: 7.10

## LLWYRRGTF
HLA-B*15:01; source organism: Mycobacterium tuberculosis C
  pKd: 6.44

## LSRKTFDSEY
HLA-A*01:01 [3]; [6]
  pKd: 5.74
HLA-A*30:02; [6]
  pKd: 6.20

## LWMAEIPLQW
HLA-A*24:02; [8]
  pKd: 7.41
HLA-A*23:01; [8]
  pKd: 7.86

## LYALITEQF
HLA-A*29:02; [15]
  pKd: 6.14
HLA-A*24:02; [15]
  pKd: 7.77
HLA-A*23:01; [15]
  pKd: 8.55

## LYIAENGEL
HLA-A*29:02; [15]
  pKd: ≤ 4.68
HLA-A*24:02; [15]
  pKd: 5.77
HLA-A*23:01; [15]
  pKd: 6.61

## MPLGVVTNS
HLA-A*02:01 [1]; [12]
  pIC50: 4.89

## MQLKIDKLT
HLA-A*02:02
  pKd: 5.12
HLA-A*02:06
  pKd: ≤ 4.22
HLA-A*02:03
  pKd: ≤ 4.22

## MTDDIGMGVT
HLA-A*01:01 [3]; [6]
  pKd: 5.95

## NMLDDFSAGA
HLA-A*02:02
  pKd: 6.51
HLA-A*02:06
  pKd: 6.62
HLA-A*02:03
  pKd: 6.79

## NQDLNGNWY
HLA-B*15:01; source organism: SARS-CoV1
  pKd: 4.82
HLA-A*01:01 [4]
  pKd: 6.55
HLA-A*29:02; [16]
  pKd: 6.07
HLA-A*30:02; [16]
  pKd: 5.57
HLA-A*24:02; [16]
  pKd: ≤ 4.11
HLA-A*23:01; [16]
  pKd: ≤ 4.11
HLA-A*26:01; [16]
  pKd: ≤ 4.46

## NYPLWSQSY
HLA-A*24:02; source organism: Homo sapiens
  pKd: 6.44

## PLSINVSGV
HLA-A*02:02
  pKd: 5.95
HLA-A*02:06
  pKd: 4.75
HLA-A*02:03
  pKd: 7.34

## PTNDIPSLFI
HLA-A*02:02
  pKd: 4.96
HLA-A*02:06
  pKd: 4.83
HLA-A*02:03
  pKd: ≤ 4.21

## PVLEKKVCAI
HLA-A*02:02
  pKd: 6.27
HLA-A*02:06
  pKd: 5.98
HLA-A*02:03
  pKd: 5.92
